Source: US20250333512A1 (PLANTVAX, published 2025)

What was measured:
Assay in all cases: cell-based or functional assay
[1] = target: chimeric receptor containing a rhesus macaque FcγRIIA ectodomain and the CD3ζ intracellular signaling domain (rhesus macaque, UniProt A0A7G8YX83 34-216)
[2] = target: chimeric receptor containing a rhesus macaque FcγRIIB ectodomain and the CD3ζ intracellular signaling domain (rhesus macaque, UniProt A0A7G8YX88 43-217)
[3] = target: chimeric receptor containing a rhesus macaque FcγRIII ectodomain and the CD3ζ intracellular signaling domain (rhesus macaque, UniProt A3RFZ7 21-206)
[4] = target: chimeric receptor containing a rhesus macaque FcγRI ectodomain and the CD3ζ intracellular signaling domain (rhesus macaque, UniProt A0A7G8YX43 16-293)

Chain of chimeric receptor containing a rhesus macaque FcγRIII ectodomain and the CD3ζ intracellular signaling domain (A3RFZ7 whole entry, change not shown, the tested form may be a part): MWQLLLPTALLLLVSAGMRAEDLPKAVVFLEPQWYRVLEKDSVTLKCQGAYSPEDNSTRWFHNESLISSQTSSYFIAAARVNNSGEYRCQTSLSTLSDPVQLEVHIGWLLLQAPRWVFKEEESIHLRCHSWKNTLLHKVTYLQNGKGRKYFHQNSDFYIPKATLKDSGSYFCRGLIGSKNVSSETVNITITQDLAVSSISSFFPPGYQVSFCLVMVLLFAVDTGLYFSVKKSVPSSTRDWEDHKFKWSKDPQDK

| Binder | EC50 (IL-2 ELISA) [1] [µg/mL] | EC50 (IL-2 ELISA) [2] [µg/mL] | EC50 (IL-2 ELISA) [3] [µg/mL] | EC50 (IL-2 ELISA) [4] [µg/mL] |
| --- | --- | --- | --- | --- |
| Nb PGT121 (antibody, Plant-type N-glycan at heavy-chain N312 (EU N297); letters unchanged.) heavy: not shown light: SDISVAPGETARISCGEKSLGSRAVQWYQHRAGQAPSLIIYNNQDRPSGIPERFSGSPDSPFGTTATLTITSVEAGDEADYYCHIWDSRVPTKWVFGGGTTLTVLRTVAAPSVFIFPPSDEQLKSGTASVVCLLNNFYPREAKVQWKVDNALQSGNSQESVTEQDSKDSTYSLSSTLTLSKADYEKHKVYACEVTHQGLSSPVTKSFNRGEC | > 50 | > 50 | > 50 | ~0.71 |
| Nb PGT121-LS (antibody, Plant-type N-glycan (partly unoccupied) at heavy-chain N312 (EU N297); letters unchanged.) heavy: QMQLQESGPGLVKPSETLSLTCSVSGASISDSYWSWIRRSPGKGLEWIGYVHKSGDTNYSPSLKSRVNLSLDTSKNQVSLSLVAATAADSGKYYCARTLHGRRIYGIVAFNEWFTYFYMDVWGNGTQVTVSSASTKGPSVFPLAPSSKSTSGGTAALGCLVKDYFPEPVTVSWNSGALTSGVHTFPAVLQSSGLYSLSSVVTVPSSSLGTQTYICNVNHKPSNTKVDKKVEPKSCDKTHTCPPCPAPELLGGPSVFLFPPKPKDTLMISRTPEVTCVVVDVSHEDPEVKFNWYVDGVEVHNAKTKPREEQYNSTYRVVSVLTVLHQDWLNGKEYKCKVSNKAFPAPIEKTISKAKGQPREPQVYTLPPSRDELTKNQVSLTCLVKGFYPSDIAVEWESNGQPENNYKTTPPVLDSDGSFFLYSKLTVDKSRWQQGNVFSCSVLHEALHSHYTQKSLSLSPGK light: SDISVAPGETARISCGEKSLGSRAVQWYQHRAGQAPSLIIYNNQDRPSGIPERFSGSPDSPFGTTATLTITSVEAGDEADYYCHIWDSRVPTKWVFGGGTTLTVLRTVAAPSVFIFPPSDEQLKSGTASVVCLLNNFYPREAKVQWKVDNALQSGNSQESVTEQDSKDSTYSLSSTLTLSKADYEKHKVYACEVTHQGLSSPVTKSFNRGEC | > 50 | > 50 | > 50 | 1.2 |
